Test results published in the supplement of paper PMC10567573.

B1: KCNAB2 (parent)
chain: SSIIHEIDSILGNKPYSKKDYRS

Variants of: B1
Assay: protein stability index of a GFP-peptide fusion (GPS, HEK-293T) (PSI 1-6); higher = more stable
Conditions: c terminus: native
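Further: lentivirally expressed fusions sorted by FACS into six bins by GFP to DsRed ratio, PSI derived from sequencing read proportions per bin multiplied by bin number.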

In order of rising protein stability index:
1. SSIFHEIDSILGNKPYSKKDYRS [I4F]  1.29
2. SSIWHEIDSILGNKPYSKKDYRS [I4W]  1.4
3. SSIIIEIDSILGNKPYSKKDYRS [H5I]  1.48
4. YSIIHEIDSILGNKPYSKKDYRS [S1Y]  1.59
5. SKIIHEIDSILGNKPYSKKDYRS [S2K]  1.66
6. SSWIHEIDSILGNKPYSKKDYRS [I3W]  1.72
7. SSIIHAIDSILGNKPYSKKDYRS [E6A]  1.72
8. SIIIHEIDSILGNKPYSKKDYRS [S2I]  1.72
9. SSIIMEIDSILGNKPYSKKDYRS [H5M]  1.76
10. SLIIHEIDSILGNKPYSKKDYRS [S2L]  1.77
11. MSIIHEIDSILGNKPYSKKDYRS [S1M]  1.8
12. SVIIHEIDSILGNKPYSKKDYRS [S2V]  1.89
13. SSIIHCIDSILGNKPYSKKDYRS [E6C]  1.94
14. SMIIHEIDSILGNKPYSKKDYRS [S2M]  1.98
15. SSIIHIIDSILGNKPYSKKDYRS [E6I]  2.01
16. SSIIYEIDSILGNKPYSKKDYRS [H5Y]  2.05
17. LSIIHEIDSILGNKPYSKKDYRS [S1L]  2.13
18. SSIIWEIDSILGNKPYSKKDYRS [H5W]  2.2
19. SSIIFEIDSILGNKPYSKKDYRS [H5F]  2.21
20. SSIILEIDSILGNKPYSKKDYRS [H5L]  2.21
21. SCIIHEIDSILGNKPYSKKDYRS [S2C]  2.22
22. SYIIHEIDSILGNKPYSKKDYRS [S2Y]  2.24
23. SSIIHHIDSILGNKPYSKKDYRS [E6H]  2.31
24. SHIIHEIDSILGNKPYSKKDYRS [S2H]  2.31
25. VSIIHEIDSILGNKPYSKKDYRS [S1V]  2.34
26. SSIIVEIDSILGNKPYSKKDYRS [H5V]  2.38
27. SFIIHEIDSILGNKPYSKKDYRS [S2F]  2.4
28. SSIICEIDSILGNKPYSKKDYRS [H5C]  2.42
29. SSIVHEIDSILGNKPYSKKDYRS [I4V]  2.46
30. HSIIHEIDSILGNKPYSKKDYRS [S1H]  2.46
31. SSQIHEIDSILGNKPYSKKDYRS [I3Q]  2.53
32. SSILHEIDSILGNKPYSKKDYRS [I4L]  2.56
33. SSIMHEIDSILGNKPYSKKDYRS [I4M]  2.59
34. TSIIHEIDSILGNKPYSKKDYRS [S1T]  2.6
35. SWIIHEIDSILGNKPYSKKDYRS [S2W]  2.66
36. ISIIHEIDSILGNKPYSKKDYRS [S1I]  2.67
37. SSIGHEIDSILGNKPYSKKDYRS [I4G]  2.69
38. SSIIEEIDSILGNKPYSKKDYRS [H5E]  2.7
39. SSIYHEIDSILGNKPYSKKDYRS [I4Y]  2.75
40. SSKIHEIDSILGNKPYSKKDYRS [I3K]  2.78
41. RSIIHEIDSILGNKPYSKKDYRS [S1R]  2.78
42. SSIKHEIDSILGNKPYSKKDYRS [I4K]  2.81
43. SSIIHGIDSILGNKPYSKKDYRS [E6G]  2.82
44. SSFIHEIDSILGNKPYSKKDYRS [I3F]  2.83
45. SSIHHEIDSILGNKPYSKKDYRS [I4H]  2.86
46. SAIIHEIDSILGNKPYSKKDYRS [S2A]  2.89
47. SSLIHEIDSILGNKPYSKKDYRS [I3L]  2.9
48. SSIRHEIDSILGNKPYSKKDYRS [I4R]  2.94
49. QSIIHEIDSILGNKPYSKKDYRS [S1Q]  2.94
50. SSIIHDIDSILGNKPYSKKDYRS [E6D]  2.97
51. SSIISEIDSILGNKPYSKKDYRS [H5S]  2.98
52. SSIIQEIDSILGNKPYSKKDYRS [H5Q]  3.02
53. SSIIGEIDSILGNKPYSKKDYRS [H5G]  3.07
54. SQIIHEIDSILGNKPYSKKDYRS [S2Q]  3.07
55. SSIIPEIDSILGNKPYSKKDYRS [H5P]  3.09
56. SRIIHEIDSILGNKPYSKKDYRS [S2R]  3.13
57. SSYIHEIDSILGNKPYSKKDYRS [I3Y]  3.17
58. SSMIHEIDSILGNKPYSKKDYRS [I3M]  3.17
59. SGIIHEIDSILGNKPYSKKDYRS [S2G]  3.2
60. SSIIHKIDSILGNKPYSKKDYRS [E6K]  3.21
61. SSISHEIDSILGNKPYSKKDYRS [I4S]  3.25
62. SSIIHLIDSILGNKPYSKKDYRS [E6L]  3.25
63. PSIIHEIDSILGNKPYSKKDYRS [S1P]  3.28
64. SNIIHEIDSILGNKPYSKKDYRS [S2N]  3.43
65. SSIAHEIDSILGNKPYSKKDYRS [I4A]  3.44
66. SSIINEIDSILGNKPYSKKDYRS [H5N]  3.44
67. KSIIHEIDSILGNKPYSKKDYRS [S1K]  3.55
68. SSICHEIDSILGNKPYSKKDYRS [I4C]  3.6
69. SSIITEIDSILGNKPYSKKDYRS [H5T]  3.6
70. SSVIHEIDSILGNKPYSKKDYRS [I3V]  3.61
71. SSIIHFIDSILGNKPYSKKDYRS [E6F]  3.61
72. SSIIREIDSILGNKPYSKKDYRS [H5R]  3.64
73. SPIIHEIDSILGNKPYSKKDYRS [S2P]  3.68
74. SSIIDEIDSILGNKPYSKKDYRS [H5D]  3.7
75. STIIHEIDSILGNKPYSKKDYRS [S2T]  3.75
76. SDIIHEIDSILGNKPYSKKDYRS [S2D]  3.81
77. SSIIAEIDSILGNKPYSKKDYRS [H5A]  3.83
78. SSIIKEIDSILGNKPYSKKDYRS [H5K]  3.83
79. SSCIHEIDSILGNKPYSKKDYRS [I3C]  3.85
80. SSIEHEIDSILGNKPYSKKDYRS [I4E]  3.9
81. SSAIHEIDSILGNKPYSKKDYRS [I3A]  3.94
82. SSITHEIDSILGNKPYSKKDYRS [I4T]  3.95
83. SSPIHEIDSILGNKPYSKKDYRS [I3P]  3.96
84. NSIIHEIDSILGNKPYSKKDYRS [S1N]  3.97
85. SSHIHEIDSILGNKPYSKKDYRS [I3H]  4
86. SEIIHEIDSILGNKPYSKKDYRS [S2E]  4.02
87. SSRIHEIDSILGNKPYSKKDYRS [I3R]  4.09
88. SSEIHEIDSILGNKPYSKKDYRS [I3E]  4.16
89. SSNIHEIDSILGNKPYSKKDYRS [I3N]  4.2
90. SSIQHEIDSILGNKPYSKKDYRS [I4Q]  4.26
91. SSIDHEIDSILGNKPYSKKDYRS [I4D]  4.28
92. SSGIHEIDSILGNKPYSKKDYRS [I3G]  4.46
93. SSINHEIDSILGNKPYSKKDYRS [I4N]  4.51
94. SSTIHEIDSILGNKPYSKKDYRS [I3T]  4.58
95. SSIPHEIDSILGNKPYSKKDYRS [I4P]  4.63
96. SSSIHEIDSILGNKPYSKKDYRS [I3S]  4.63
97. SSDIHEIDSILGNKPYSKKDYRS [I3D]  4.67
